# Source: the nanobody polyreactivity screen of Harvey et al. (2022)
# Assay: yeast display, Sf9 membrane polyspecificity reagent, FACS + sequencing; frameworks hold sequencing errors
# How it was run: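 Galactose-induced (36–48 hours) yeast carrying a synthetic nanobody display library were exposed to 10% biotinylated, detergent-solubilized Sf9 membrane reagent at 4 °C for 1 hour. FACS followed streptavidin microbead enrichment, using low and high (top ~1%) gates for expression (anti-HA) and reagent binding (streptavidin). Colony PCR, MiSeq 2 × 250 sequencing and CDR-length filtering followed. Labels for polyreactivity reflect the gate of origin.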
row,Sequence,polyreactivity (PSR sort gate)
1,QVQLVESGGCLVQAGGSLRLSCAASGYIFFINSMGWYRQAPGKERELVAAITRRGVSTYYADSVKGRFTISRDNAKNSVYLQMHSLKPEDTAVYYCATEHNHLGYYYWGQGTQVTVSS,low polyreactivity
2,QVQLVESGGCLVQAGGSLRLSCAASRRIFNYYAMGWYRQAPGKERELVAAINSGGSTYADSVKGRFTISRDNAKNTVYLQMNSLKPEDTAVYYCAKDGQLLSGRERPSGYDHWGQGTQVTVSS,low polyreactivity
3,QVQLVESGGCLVQAGGSLRLSCAATGSIFYGNTMVWYRQAPGKDRELLAAISSGGSTKYADSVKGRFTISRDNAKNTVYLQMNSLKPEDTAVYYCAADLPRYWVTWMDYRGQGTQVTVSS,low polyreactivity
4,QVQLVESGGCLVQAGGSLRLSCADSGLTFTHYTKGWYRQAPGKVRELVAAITTSGGSTYYADSVKGRFTISRDNAKNTVYLQMNSLKPEDTAVYDCDSDVWYWTYIGEYWGQGTQVTVSS,high polyreactivity
5,QVQLVESGGCLVQAGGSLRLSCASSGRTFLVYAMGWYRQAPGKERELVAAITSGGSTYYADSVKGRFTISRDNAKNTVYLQMNSLKPEDTAVYYCAAKIRGYPRRRYDYWGQGTQVTVSS,high polyreactivity
6,QVQLVESGGCLVQAGGSLRLSCDASGGIFVSYAMGWYRQAPRKDRELVAAITSGGGTSYADSVKGRFTISRDNAKNTVYLQMNSLKPEDTAVYYCNADGYLAERFVIRLDEYRDYDYWGQGTQVTVSS,low polyreactivity
7,QVQLVESGGCLVQAGGSLRLSCDAYGSTFDDNAMGWYRQAPGKERELVAGISTNGGSTSYADSVKGRFTISRDNAKNTVYLQMNSLKPEDTAVYYCAKGLYVHFDYWGQGTQVTVSS,low polyreactivity
8,QVQLVESGGCLVQAGGSLRLSCPASGSNFPDNAMGRYRPAPGKERELVAAISLSGGRTYYADSVKGRFTISRDNAKNTVYLQMNSLKPDDTAVYYCNKLTRFVKYDYWGQGTQVTVSS,high polyreactivity
9,QVQLVESGGCLVQAGGSLRLSCSASGRIFNTYAMGWYRQAPGKERDLVARISSGGTTYYADSVKGRFTISRDNAKNTVYLQMNSLKPEDTAVYYCNVRAVTPTRSRPFRYDYWGQGTQVTVSS,high polyreactivity
10,QVQLVESGGCLVQAGGSLRLSCVASGRTFRRYAMGWYRQAPGKERELLSTITLNGGSTYYADSVKGRFTISRDNATNTVDLQMNSLKPEDTAVYDCKRCTNVVRRGVYSFGYDYWGEGTQVTVSS,low polyreactivity
11,QVQLVESGGCLVQAGGSLRLSSAASGSTFRQYAMGWYRQAPGKERELVAAITWRGDNTYYADSVKGRFTISRDNAKNSVYLQMNSLKPEDTAVYYCAARWSYRLYWGYGYWGQGTQVTVSS,low polyreactivity
12,QVQLVESGGCLVQAGGSLRLSWDASGSIFLGYTIGWYRQAPGKERELVAAINSSGGSTYYAYSVKGRFTISRDNAKNTVFLQMNSLKPDDTAVYYCADANSILLFDSWGQGTQVTVSS,low polyreactivity
13,QVQLVESGGCLVQAGGSLRLTCAASGYIFANNARGWYRQAPGTERELVAAISSSGGRTYYADSVKGRFTISRDNAKNTVYLQMNSLKPEDTAVYYCAAESVDNIYYGFDYWGQGTQVTVSS,high polyreactivity
14,QVQLVESGGCLVQAGGSLSLSCAASGSIFGWYVMGWYRQAPGKERELGAAISSVGSTYYADSVKGRFTISRDNAKNTVYLQMNSLKPEDTAVYYCAKLRYPYLFSDDSEYWGQGTQVTVSS,low polyreactivity
15,QVQLVESGGCLVQAQGSLRLSCAASGFTFGYNAMGWYRQAPGKERELVAVISSRGGRTYYADSVKGRFTISRDNAKNTVYLQMYSLKPEDTAVYYCAKRSGSYSYPAVGGWGLGYCGQGTQVTVSS,high polyreactivity
16,QVQLVESGGCLVQPGGSLRLSCAASGRTSVRNAMGWYRQAPGKERELVAAISNGGRTNYADSVKGRFTISRGNAKNTVYLQMNSLKPQDTAVYYCAARGFWLYYHGGVRSGYDYWGQGTQVTVSS,high polyreactivity
